Results from PMC6936856.
Residue numbers refer to the chain shown, from its start.

Columns and labels:
[1] = biological target: JR-FL Env gp160 on pseudovirus (HIV-1 (JR-FL)) (UniProt Q75760)
[2] = biological target: JR-FL Env gp160 on pseudovirus (HIV-1 (JR-FL)) (UniProt Q75760); remark: listed apart in the source

B1: DH501 IgG1 (antibody, V domains shown)
VH: QVTLKEFGPALVKPTQPLTLTCSFSGFSLRSSDTAVVWIRQPPGKALEWLAAIYWDDVEHINPSLKSRLSISKDSPNSLVVLTMANMDPVDTATYYCGRVRFVSGGYYTDRIDSWGPGLLVTVSS
VL: QSVLTQPPSVSGAPGQRVTISCAGTKSNIGDCSVSWYQQLPGATPRLLIYQNNNRPSGVSDRFSGSKSGTSASLAITGLQTEDEADYFCLSYDTSFSGWRFGGGTRLTVL
- IC50 of neutralisation of kifunensine-treated (Man9GlcNAc2-enriched) JR-FL pseudovirus, TZM-bl cells [1]: 0.09 µg/mL

B2: DH501 H/UCA L chimeric antibody (antibody, V domains shown)
VH: B1 VH
VL: QSVLTQPPSVSGAPGQRVTISCTGSSSNIGGYYVSWYQQLPGTTPKLLIYQDNKRPSGVSDRFSGSKSGTSASLTITGLQTEDEADYYCLSYDTSFSGWRFGGGTRLTVL
- IC50 of neutralisation of kifunensine-treated (Man9GlcNAc2-enriched) JR-FL pseudovirus, TZM-bl cells [1]: 0.06 µg/mL

B3: DH501 with HFWR4 somatic mutations reverted to the UCA sequence (antibody, V domains shown)
VH: B1 VH with P117Q, L119V
VL: B1 VL
- IC50 of neutralisation of kifunensine-treated JR-FL, TZM-bl cells [2]: 4.34 µg/mL
